B1: TCR2 (anti-IL-17 IgG-TCR, Cα for CH1, Cβ for CL) (antibody)
heavy: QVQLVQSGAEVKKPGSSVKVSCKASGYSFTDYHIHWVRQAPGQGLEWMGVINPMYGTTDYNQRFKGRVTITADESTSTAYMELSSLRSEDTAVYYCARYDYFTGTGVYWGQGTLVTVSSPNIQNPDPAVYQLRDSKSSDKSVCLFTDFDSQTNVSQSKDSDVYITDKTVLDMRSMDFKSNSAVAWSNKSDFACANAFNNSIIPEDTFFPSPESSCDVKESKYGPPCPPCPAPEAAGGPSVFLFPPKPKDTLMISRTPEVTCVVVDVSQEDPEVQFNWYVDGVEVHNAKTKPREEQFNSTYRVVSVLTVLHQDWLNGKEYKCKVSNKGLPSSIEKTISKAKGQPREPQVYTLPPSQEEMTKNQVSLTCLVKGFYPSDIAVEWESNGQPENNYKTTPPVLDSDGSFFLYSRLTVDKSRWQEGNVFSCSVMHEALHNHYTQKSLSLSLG
light: DIVMTQTPLSLSVTPGQPASISCRSSRSLVHSRGNTYLHWYLQKPGQSPQLLIYKVSNRFIGVPDRFSGSGSGTDFTLKISRVEAEDVGVYYCSQSTHLPFTFGQGTKLEIKEDLNKVFPPEVAVFEPSEAEISHTQKATLVCLATGFFPDHVELSWWVNGKEVHSGVSTDPQPLKEQPALNDSRYCLSSRLRVSATFWQNPRNHFRCQVQFYGLSENDEWTQDRAKPVTQIVSAEAWGRADCGFTS
notes: IgG-TCR format with IgG4PAA hinge-Fc
B2: TCR8 (anti-IL-17 IgG-TCR, truncated Cα for CH1, Cβ for CL) (antibody)
heavy: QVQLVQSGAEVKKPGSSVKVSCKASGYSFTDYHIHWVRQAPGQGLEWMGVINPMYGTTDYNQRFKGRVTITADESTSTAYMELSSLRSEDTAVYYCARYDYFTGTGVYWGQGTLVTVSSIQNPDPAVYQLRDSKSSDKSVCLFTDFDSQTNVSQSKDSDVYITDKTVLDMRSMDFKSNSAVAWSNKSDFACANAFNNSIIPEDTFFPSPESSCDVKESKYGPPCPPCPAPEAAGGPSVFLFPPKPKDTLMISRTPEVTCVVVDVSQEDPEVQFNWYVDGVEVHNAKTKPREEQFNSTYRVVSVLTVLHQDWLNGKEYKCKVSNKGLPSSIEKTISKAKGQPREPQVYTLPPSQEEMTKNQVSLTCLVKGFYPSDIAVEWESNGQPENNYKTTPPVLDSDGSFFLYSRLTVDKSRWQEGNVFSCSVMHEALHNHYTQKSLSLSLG
light: B1 light
notes: as for B1
B3: TCR3 (anti-IL-17 IgG-TCR, truncated Cβ for CH1, truncated Cα for CL) (antibody)
heavy: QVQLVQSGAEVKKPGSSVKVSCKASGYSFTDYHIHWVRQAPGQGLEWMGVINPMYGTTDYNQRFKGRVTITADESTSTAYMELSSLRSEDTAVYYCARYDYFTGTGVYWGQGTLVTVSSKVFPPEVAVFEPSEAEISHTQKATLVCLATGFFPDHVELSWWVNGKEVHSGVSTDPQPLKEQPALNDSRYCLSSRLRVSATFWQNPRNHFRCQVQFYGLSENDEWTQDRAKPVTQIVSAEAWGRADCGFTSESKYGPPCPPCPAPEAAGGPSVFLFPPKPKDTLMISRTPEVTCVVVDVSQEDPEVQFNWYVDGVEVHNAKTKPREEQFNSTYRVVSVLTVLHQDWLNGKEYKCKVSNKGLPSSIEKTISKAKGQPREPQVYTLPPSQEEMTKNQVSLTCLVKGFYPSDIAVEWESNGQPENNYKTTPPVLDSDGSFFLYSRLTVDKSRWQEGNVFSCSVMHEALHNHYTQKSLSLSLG
light: DIVMTQTPLSLSVTPGQPASISCRSSRSLVHSRGNTYLHWYLQKPGQSPQLLIYKVSNRFIGVPDRFSGSGSGTDFTLKISRVEAEDVGVYYCSQSTHLPFTFGQGTKLEIKIQNPDPAVYQLRDSKSSDKSVCLFTDFDSQTNVSQSKDSDVYITDKTVLDMRSMDFKSNSAVAWSNKSDFACANAFNNSIIPEDTFFPSPESSCDVK
B4: anti-human IL-17 IgG4/κ antibody (antibody)
heavy: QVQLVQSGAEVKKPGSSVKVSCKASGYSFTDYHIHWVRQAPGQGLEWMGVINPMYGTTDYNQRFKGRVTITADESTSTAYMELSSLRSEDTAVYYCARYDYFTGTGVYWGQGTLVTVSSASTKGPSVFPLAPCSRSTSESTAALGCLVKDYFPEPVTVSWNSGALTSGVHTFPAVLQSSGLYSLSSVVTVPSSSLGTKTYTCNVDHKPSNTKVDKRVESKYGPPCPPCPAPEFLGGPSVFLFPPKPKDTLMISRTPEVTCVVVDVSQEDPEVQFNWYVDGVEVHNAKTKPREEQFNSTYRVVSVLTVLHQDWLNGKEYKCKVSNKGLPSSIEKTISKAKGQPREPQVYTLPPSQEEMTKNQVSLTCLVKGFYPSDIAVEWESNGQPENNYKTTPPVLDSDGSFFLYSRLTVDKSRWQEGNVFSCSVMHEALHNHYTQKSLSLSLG
light: DIVMTQTPLSLSVTPGQPASISCRSSRSLVHSRGNTYLHWYLQKPGQSPQLLIYKVSNRFIGVPDRFSGSGSGTDFTLKISRVEAEDVGVYYCSQSTHLPFTFGQGTKLEIKRTVAAPSVFIFPPSDEQLKSGTASVVCLLNNFYPREAKVQWKVDNALQSGNSQESVTEQDSKDSTYSLSSTLTLSKADYEKHKVYACEVTHQGLSSPVTKSFNRGEC
notes: Parent IgG4/kappa antibody of the IgG-TCR constructs TCR1-TCR8; also called Anti-IL17/IgG4; Anti-17 IgG4
B5: C-mTCRpG1 (bispecific antibody, human IgG1, kappa)
heavy: not shown
light 1: not shown
light 2: DIQMTQSPSSLSASVGDRVTITCSASSSVTYMYWYQQKPGKAPKLLIYDTSNLASGVPSRFSGSGSGTDYTFTISSLQPEDIATYYCQQWSSHIFTFGQGTKVEIKKVFPPEVAVFEPSEAEISHTQKATLVCLATGFFPDHVELSWWVNGKEVHSGVSTDPQPLKEQPALNDSRYCLSSRLRVSATFWQNPRNHFRCQVQFYGLSENDEWTQDRAKPVTQIVSAEAWGRADC
notes: Anti-EGFR (matuzumab TCR-Fab) / anti-HER-2 (pertuzumab IgG-Fab) IgG-(Fab)2, Format 1
B6: N-mTCRpG1 (bispecific antibody, human IgG1, kappa)
heavy: not shown
light 1: not shown
light 2: B5 light 2
notes: Anti-EGFR (matuzumab TCR-Fab) / anti-HER-2 (pertuzumab IgG) IgG-(Fab)2, Format 3; also called N-mTCRpG1ds
B7: mTCR-G1(-) (antibody, human IgG1)
heavy: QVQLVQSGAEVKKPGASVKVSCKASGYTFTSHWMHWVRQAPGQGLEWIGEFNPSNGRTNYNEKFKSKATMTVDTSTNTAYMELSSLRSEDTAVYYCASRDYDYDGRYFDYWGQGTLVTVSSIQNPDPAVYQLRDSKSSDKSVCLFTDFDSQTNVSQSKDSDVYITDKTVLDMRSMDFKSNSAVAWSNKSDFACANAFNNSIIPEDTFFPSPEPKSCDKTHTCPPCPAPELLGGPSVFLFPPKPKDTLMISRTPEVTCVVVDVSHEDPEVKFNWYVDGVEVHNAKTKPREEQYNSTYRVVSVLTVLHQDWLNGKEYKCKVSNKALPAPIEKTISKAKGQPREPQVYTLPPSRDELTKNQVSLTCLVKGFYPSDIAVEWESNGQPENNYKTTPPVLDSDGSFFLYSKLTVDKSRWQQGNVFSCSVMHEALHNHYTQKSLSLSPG
light: B5 light 2
notes: Matuzumab Fv in IgG-TCR format (anti-EGFR IgG-TCR control)
B8: TCR4 (anti-IL-17 IgG-TCR, truncated Cα for CH1, truncated Cβ for CL) (antibody)
heavy: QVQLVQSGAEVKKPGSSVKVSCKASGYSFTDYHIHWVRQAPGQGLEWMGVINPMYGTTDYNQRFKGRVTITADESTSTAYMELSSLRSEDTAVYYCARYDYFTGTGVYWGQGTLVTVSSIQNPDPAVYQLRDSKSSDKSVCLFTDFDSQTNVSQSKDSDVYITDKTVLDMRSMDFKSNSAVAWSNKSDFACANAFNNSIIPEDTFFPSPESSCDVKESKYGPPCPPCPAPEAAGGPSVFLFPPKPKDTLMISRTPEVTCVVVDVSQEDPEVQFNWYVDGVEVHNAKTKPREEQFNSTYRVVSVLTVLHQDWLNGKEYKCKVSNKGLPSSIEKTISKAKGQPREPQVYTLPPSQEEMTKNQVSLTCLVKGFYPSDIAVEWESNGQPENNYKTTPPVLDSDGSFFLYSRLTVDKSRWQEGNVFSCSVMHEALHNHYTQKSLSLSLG
light: DIVMTQTPLSLSVTPGQPASISCRSSRSLVHSRGNTYLHWYLQKPGQSPQLLIYKVSNRFIGVPDRFSGSGSGTDFTLKISRVEAEDVGVYYCSQSTHLPFTFGQGTKLEIKKVFPPEVAVFEPSEAEISHTQKATLVCLATGFFPDHVELSWWVNGKEVHSGVSTDPQPLKEQPALNDSRYCLSSRLRVSATFWQNPRNHFRCQVQFYGLSENDEWTQDRAKPVTQIVSAEAWGRADCGFTS
notes: as for B1
B9: TCR6 (anti-IL-17 IgG-TCR, Cα for CH1, truncated Cβ for CL) (antibody)
heavy: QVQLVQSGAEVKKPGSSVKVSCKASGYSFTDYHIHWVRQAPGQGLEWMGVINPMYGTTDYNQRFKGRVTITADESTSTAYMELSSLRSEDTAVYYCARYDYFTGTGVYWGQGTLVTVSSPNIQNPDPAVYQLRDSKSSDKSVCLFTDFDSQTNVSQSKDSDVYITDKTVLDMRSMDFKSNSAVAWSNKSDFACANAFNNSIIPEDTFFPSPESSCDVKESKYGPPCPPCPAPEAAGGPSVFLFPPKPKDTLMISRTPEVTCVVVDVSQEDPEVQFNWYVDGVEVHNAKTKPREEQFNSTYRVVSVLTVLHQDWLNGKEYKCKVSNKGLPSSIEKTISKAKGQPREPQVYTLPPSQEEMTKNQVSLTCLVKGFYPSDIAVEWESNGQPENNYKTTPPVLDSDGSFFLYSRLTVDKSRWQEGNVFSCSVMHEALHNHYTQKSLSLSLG
light: B8 light
notes: as for B1

How the values were obtained:
[1] = biological target: T1, IL-17 (SEQ ID NO:80), hIL-17 with C-terminal FlagHis tag (human); assay: SPR (Biacore 3000): antibody captured on anti-human Fc, saturating IL-17 injected; RU of IL-17 per RU captured, relative to WT IgG
T1 construct: The entry holds the IL-17 part and the Flag-His tag
T1 sequence (chain, as listed by the source limits assumed): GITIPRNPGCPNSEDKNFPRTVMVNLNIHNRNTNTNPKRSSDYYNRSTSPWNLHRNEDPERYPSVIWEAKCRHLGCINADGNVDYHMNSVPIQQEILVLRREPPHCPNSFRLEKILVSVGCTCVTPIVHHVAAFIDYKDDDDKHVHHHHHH
Protocol: The extent of HC/LC assembly is assessed using a kinetic Biacore experiment. Briefly, kinetic surface Plasmon resonance (SPR) experiments are performed using a Biacore 3000 (GE Healthcare). IgG-TCR proteins are captured onto CM5 sensorchip surfaces with an immobilized goat anti-human IgG-Fc polyclonal antibody (Jackson ImmunoResearch, Cat. #109-005-098). The goat polyclonal antibody immobilization is achieved by injecting the protein (at 50 μg/mL, pH 5) over an NHS/EDC activated sensorchip surface followed by blocking with ethanolamine (as described by manufacturer). The IgG or IgG-TCRs are captured onto the anti-human Fc sensorchip surface by injecting 10 μL of protein at 0.1 and 0.5 mg/mL using a 2 […]. Flow rates are increased to 10 μL/min followed by secondary 30 μL injections of IL-17 (SEQ ID NO:80) at 10 and 50 nM. Following a 15 minute dissociation period, the flow rate is increased to 60 μL/min and sensorchip surfaces are regenerated using two consecutive 10 μL injections of 0.1 M glycine, pH 2.0.
The experiment measures the percent activity by relating the amount of captured IgG or IgG-TCR (based on resonance units) with the secondary response generated using a saturating level of IL-17. The percent activity of each IgG-TCR is calculated based on a comparison with the WT IgG: […]

[2] = biological target: T2, hEGFR-Fc (Cat. #344-ER-050, R&D systems) (human, UniProt P00533 25-645); assay: EGFR/HER-2 sandwich ELISA: hEGFR-Fc coat, compound titrated, detection with 0.2 µg/mL hHER-2-Histag and anti-His-HRP
T2 construct: Bought reagent; not shown: Fc part of the bought fusion
Protocol: (§1) Specifically, clear 96-well round bottom high binding microtiter plates (Greiner) are coated overnight at 2-8° C. with 50 μL/well 1 μg/mL hEGFR-Fc (Cat. #344-ER-050, R&D systems) in a 50 mM Na₂CO₃ pH 9.4 buffer. The plate is washed 4× times with PBST and blocked with 100 μL/well casein buffer (Pierce) for 1 hr at 37° C. The plate is then washed 4× times with PBST and test compounds are added at 50 μL/well and 30 μg/mL […] and serially diluted 1:2 down the plate. The test compounds are incubated on the plate for 1 hr at 37° C. The plate is washed 4× times with PBST and 50 μL/well 0.2 μg/mL hHER-2-Histag (Sino Biologics) is added for 1 hr at 37° C. The plate is then washed 4× times with PBST followed by the addition of a 50 μL/well secondary anti-Histag-HRP antibody (PENTA-His-HRP, Qiagen) diluted 1:1000 in PBST. The secondary antibody is incubated for 1 hr at 37° C. The plate is then washed 4× times with PBST and 100 μL/well 1-component 3,3′,5,5′-Tetramethylbenzidine (TMB) substrate is added (KPL laboratories). After approximately 10 minutes, 100 μL/well 1% H₃PO₄ (in H₂O) is added to quench the reaction. Absorbance (450 nm) of every well in the plate is read using a SpectraMax UV plate reader (Molecular Devices).

[3] = biological target: T3, hHER-2-Histag (Sino Biologics) (human, UniProt P04626 23-652); assay: EGFR/HER-2 sandwich ELISA: hEGFR-Fc coat, test compound, detection with hHER-2-Histag and anti-His-HRP
T3 construct: Bought reagent; not shown: His tag
Protocol: as §1

Binder	Activity by kinetic Biacore (percent activity relative to WT IgG) [1] [%]	also measured
B1	35	–
B2	48	–
B3	17	–
B4	100	–
B5	–	EC50 [2]: < 1 nM
B6	–	EC50 [2]: 2 nM
B7	–	binding result [3]: no binding (tested: 30 µg/mL (20 nM), serially diluted 1:2)
B8	54	–
B9	35	–
